Results from patent publication US20180194839A1 (Novartis, published 2018).

Experiments:
Test in all cases: ELISA, coated cytokine;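 also: antibodies incubated 3 h at room temperature on cytokine-coated plates, binding read out with alkaline phosphatase-conjugated anti-species IgG secondary antibodies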
[1] = molecular target: T1, recombinant human IL-4 (R&D Systems Cat#204-IL/CF) (human, UniProt P05112 25-153)
T1 construct: also called huIL-4
T1 sequence (looked up): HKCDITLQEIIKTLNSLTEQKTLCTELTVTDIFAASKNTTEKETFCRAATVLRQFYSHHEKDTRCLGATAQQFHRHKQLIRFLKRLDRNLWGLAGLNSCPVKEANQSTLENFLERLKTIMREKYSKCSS

[2] = molecular target: T2, recombinant human IL-13 (Novartis) (human, UniProt P35225 35-146, limits assumed)
T2 construct: also called huIL-13

[3] = molecular target: T3, recombinant human IL-20 (Novartis) (human, UniProt Q9NYY1 25-176, limits assumed)
T3 construct: also called huIL-20
T3 sequence (looked up): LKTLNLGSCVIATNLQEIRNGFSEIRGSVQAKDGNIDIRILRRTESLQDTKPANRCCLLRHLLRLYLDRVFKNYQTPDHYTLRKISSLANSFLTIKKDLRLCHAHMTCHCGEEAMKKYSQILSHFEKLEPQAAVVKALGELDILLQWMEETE

[4] = molecular target: T4, recombinant human TNFα (Novartis) (human, UniProt P01375 77-233)
T4 construct: also called huTNFα

[5] = molecular target: T5, recombinant human EGF (Sigma Cat#E9644) (human, UniProt P01133 971-1023)
T5 construct: also called huEGF

[6] = molecular target: T6, recombinant human TGFβ2 (Novartis) (human, UniProt P61812 303-414)
T6 construct: also called huTGFβ2
T6 sequence (looked up): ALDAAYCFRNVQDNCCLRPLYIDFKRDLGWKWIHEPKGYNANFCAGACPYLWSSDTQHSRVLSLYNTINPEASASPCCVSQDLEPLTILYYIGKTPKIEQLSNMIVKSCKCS

[7] = molecular target: T7, recombinant mouse IL-1β (R&D Systems Cat#401-ML) (mouse, UniProt P10749 118-269)
T7 construct: also called mIL-1β
T7 sequence (looked up): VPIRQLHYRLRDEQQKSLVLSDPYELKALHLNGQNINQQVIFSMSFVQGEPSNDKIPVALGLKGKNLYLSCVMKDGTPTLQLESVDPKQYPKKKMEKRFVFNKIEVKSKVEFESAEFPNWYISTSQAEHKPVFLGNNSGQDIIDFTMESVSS

[8] = molecular target: T8, recombinant mouse IL-2 (R&D Systems 402-ML-020/CF) (mouse, UniProt P04351 21-169)
T8 construct: also called mIL-2
T8 sequence (looked up): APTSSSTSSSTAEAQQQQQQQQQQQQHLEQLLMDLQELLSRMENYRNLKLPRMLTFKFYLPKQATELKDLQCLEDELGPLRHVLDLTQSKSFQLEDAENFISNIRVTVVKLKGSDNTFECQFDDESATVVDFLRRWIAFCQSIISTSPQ

[9] = molecular target: T9, recombinant mouse IL-18 (MBL Cat#B004-5) (mouse, UniProt P70380 36-192)
T9 construct: also called mIL-18
T9 sequence (looked up): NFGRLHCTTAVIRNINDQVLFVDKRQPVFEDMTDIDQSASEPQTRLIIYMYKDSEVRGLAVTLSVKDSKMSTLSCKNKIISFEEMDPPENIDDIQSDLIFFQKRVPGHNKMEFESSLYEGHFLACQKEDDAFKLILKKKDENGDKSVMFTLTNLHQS

[10] = molecular target: T10, recombinant mouse IL-23 (R&D Systems Cat#1887-ML) (mouse, UniProt Q9EQ14 22-196; P43432 23-335)
T10 construct: also called mIL-23
T10 sequence (looked up) 1: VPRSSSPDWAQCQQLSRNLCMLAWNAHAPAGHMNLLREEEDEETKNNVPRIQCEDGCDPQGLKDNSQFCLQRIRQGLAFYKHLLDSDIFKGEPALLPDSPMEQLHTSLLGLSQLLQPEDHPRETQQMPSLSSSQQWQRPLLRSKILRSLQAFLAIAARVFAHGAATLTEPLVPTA
T10 sequence (looked up) 2: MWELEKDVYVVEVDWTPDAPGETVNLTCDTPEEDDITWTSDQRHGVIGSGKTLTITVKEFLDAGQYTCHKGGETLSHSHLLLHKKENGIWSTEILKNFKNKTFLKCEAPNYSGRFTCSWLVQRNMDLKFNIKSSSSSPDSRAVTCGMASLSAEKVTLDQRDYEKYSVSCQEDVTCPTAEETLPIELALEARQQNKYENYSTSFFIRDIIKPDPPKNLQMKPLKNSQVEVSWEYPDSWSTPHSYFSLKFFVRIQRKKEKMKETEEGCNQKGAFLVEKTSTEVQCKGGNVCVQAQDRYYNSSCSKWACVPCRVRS

[11] = molecular target: T11, recombinant mouse IFN-γ (R&D Systems Cat#485-MT) (mouse, UniProt P01580 23-155)
T11 construct: also called mIFN-γ
T11 sequence (looked up): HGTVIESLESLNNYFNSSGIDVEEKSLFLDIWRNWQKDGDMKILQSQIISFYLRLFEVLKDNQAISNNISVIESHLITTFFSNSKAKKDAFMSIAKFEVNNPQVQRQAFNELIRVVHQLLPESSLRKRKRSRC

[12] = molecular target: T12, recombinant mouse TNFα (R&D Systems Cat#410-MT) (mouse, UniProt P06804 80-235)
T12 construct: coated at 0.5 µg/ml; also called mTNFα
T12 sequence (looked up): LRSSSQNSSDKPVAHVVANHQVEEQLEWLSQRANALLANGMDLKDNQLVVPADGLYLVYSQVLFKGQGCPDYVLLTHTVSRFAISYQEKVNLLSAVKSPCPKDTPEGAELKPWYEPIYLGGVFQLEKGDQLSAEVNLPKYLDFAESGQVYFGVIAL

[13] = molecular target: T13, recombinant rat IL-4 (R&D Systems Cat#504-RL/CF) (rat, UniProt P20096 25-147, limits assumed)
T13 sequence (looked up): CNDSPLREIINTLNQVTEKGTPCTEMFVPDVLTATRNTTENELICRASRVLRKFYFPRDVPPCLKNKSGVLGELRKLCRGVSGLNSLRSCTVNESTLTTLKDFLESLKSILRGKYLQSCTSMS

[14] = molecular target: T14, recombinant rat IL-6 (R&D Systems Cat#506-RL-010) (rat, UniProt P20607 25-211)
T14 sequence (looked up): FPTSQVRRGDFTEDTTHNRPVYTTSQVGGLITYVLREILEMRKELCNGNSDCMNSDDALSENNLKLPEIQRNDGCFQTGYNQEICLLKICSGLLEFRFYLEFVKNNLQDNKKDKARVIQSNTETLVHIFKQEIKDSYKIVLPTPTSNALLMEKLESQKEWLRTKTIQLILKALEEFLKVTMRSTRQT

Measured: binding result

T2 sequence (P35225 35-146 limits assumed): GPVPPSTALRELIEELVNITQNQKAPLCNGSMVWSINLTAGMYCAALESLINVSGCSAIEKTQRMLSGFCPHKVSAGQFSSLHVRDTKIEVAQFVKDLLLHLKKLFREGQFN
T4 sequence (P01375 77-233 limits assumed): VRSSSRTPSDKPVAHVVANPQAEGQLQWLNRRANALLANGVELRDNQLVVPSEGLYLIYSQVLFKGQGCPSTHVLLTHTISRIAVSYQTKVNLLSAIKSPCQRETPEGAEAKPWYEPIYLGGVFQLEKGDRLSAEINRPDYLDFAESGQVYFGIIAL
T5 sequence (P01133 971-1023 limits assumed): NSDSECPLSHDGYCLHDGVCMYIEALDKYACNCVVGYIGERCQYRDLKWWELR

B1: XAB4 (antibody, human IgG1, kappa, V domains shown)
VH: EVQLVESGGDLVQPGGSLRLSCAASGFTFSSYWMSWVRQAPGKGLEWVANIKQDGSEKYYVDSVKGRFTISRDNAKNSLYLQMNSLRAEDTAVYYCARDRGSLYYWGQGTLVTVSS
VL: AIQLTQSPSSLSASVGDRVTITCRPSQGINWELAWYQQKPGKAPKLLIYDASSLEQGVPSRFSGSGSGTDFTLTISSLQPEDFATYYCQQFNSYPLTFGGGTKVEIKR
notes: also called MB435 N56Q
no binding (tested: 10 µg/ml): all assays above

B2: XAB1 (antibody, human IgG1, kappa, V domains shown)
VH: EVQLVESGGDLVQPGGSLRLSCAASGFTFSSYWMSWVRQAPGKGLEWVANIKQDGSEKYYVDSVKGRFTISRDNAKNSLYLQMNSLRAEDTAVYYCARDRGSLYYWGQGTLVTVSS
VL: AIQLTQSPSSLSASVGDRVTITCRPSQGIISALAWYQQKPGKAPKLLIYDASSLENGVPSRFSGSGSGTDFTLTISSLQPEDFATYYCQQFNSYPLTFGGGTKVEIKR
notes: human IgG1/kappa monoclonal antibody; also called parental XAB1; XAB1 IgG
no binding (tested: 10 µg/ml): all assays above
